For this series, the system named is Aβ1-42 peptide, untreated (non-nitrated).

For “recombinant insulin degrading enzyme (IDE)”, the “degradation of Aβ (immunoblot with 6E10 after 2 h incubation)” value is “Analysis after 2 h of incubation showed decreased degradation of Aβ with increasing concentration of Sin-1”.
